Article PMC3035937 (Journal of molecular biology, 2010)

T1: GST-SpRad9 (S. pombe, UniProt P26306 1-426)
T1 sequence (looked up): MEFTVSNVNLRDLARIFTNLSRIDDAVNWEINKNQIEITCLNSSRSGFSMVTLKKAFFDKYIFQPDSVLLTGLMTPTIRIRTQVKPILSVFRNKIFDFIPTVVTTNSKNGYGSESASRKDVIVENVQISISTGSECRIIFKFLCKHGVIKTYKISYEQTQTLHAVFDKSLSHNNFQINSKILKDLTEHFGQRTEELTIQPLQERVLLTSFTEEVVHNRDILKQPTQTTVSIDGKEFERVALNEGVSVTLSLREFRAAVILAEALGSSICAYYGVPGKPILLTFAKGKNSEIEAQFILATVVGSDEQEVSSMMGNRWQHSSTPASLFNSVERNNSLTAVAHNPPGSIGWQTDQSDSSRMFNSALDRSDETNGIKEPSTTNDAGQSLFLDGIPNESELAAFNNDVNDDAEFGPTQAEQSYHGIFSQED

B1: GST-SpRad1 (natural protein, S. pombe, UniProt P22193 1-323, looked up)
chain: MFQAETVCLKQIQSTLRCIDFSKECTIEITSRGLRFAVEESQSLQAHAFLDKSLFQTFNFQGDSDGDTYMFQTMISPLLQSLSIYTDGKERISTSAWDQPTVNIMHKRGVICKVQYNGPGCPFIWEVEEMAGYATACELLTMECEDDVDINRLASTLCTKIIMKSNWLYDALVELDNNMGENLIIHTSSQKSTFLLRCVGALSTTEIEYPNEKSVLESFETDSENTYSYRFSLIRHALKALQVGSKVNLRIDENGTLSIQIMLVGQEGLCTFVDFCIVPLDLVSEDEEEDEEEEPAESNQSDNNVLRNDPNYRGDAETEDEDS
B2: purified SpHst4 (SpHst4-His) (natural protein, S. pombe, UniProt Q9UR39 1-415, looked up)
chain: MKVEEHVPLIQESRKRKCQSSENASKRQQLLSKLPLRLHTGNENVDLSPLVSAIRKAKRIVVVTGAGISCDAGIPDFRSSEGLFSSLRAEYKLNCSGKELFDGSVYRDLKSVNIFHAMIRKLHMLSNNARPTDFHLFLSQLAQESKLLRLYTQNIDFLETRLEGLQTCIPLPQSAPWPTTIPLHGTLEVVSCTRCSFLKKFNPDIFDRNGVTVCPDCKTENEVRRIAGKRSVIEGCLRPRIVLYNEIHPDSESIGSVCSQDLKSRPDCLIVAGTSCKIPGVKRIIKEMSNCVHKQKGNVIWLNYDEPTKDFLNLCDLVVQGDLQIAIRRLKPLLDAPSWKLKSHSAKRTSKQKSSEQTKITSSTKITKAIGLNTKSNDSSKKDNTSFQLHQVLNSIEIPKVEIKQEVEYATPSPL
B3: GST-SpHus1 (natural protein, S. pombe, UniProt P78955 1-287, looked up)
chain: MRFKTRISNLYTLTRLVQALDKIGRFCWLRLMPETVNFVIVPDFRMTQVWSVLEVETIFEDYVVQSNADNVINLEVPIDNFYKALRSAANASDSTVRLSKKNNQPLLSLSTTWSGRAFGSNIVTHNIPVRVLSQSYVSVIKEPTAPEPDCHIFLPQLNFLRHVVDKYKSLSDRIIMSANMSGELQLSVNIPSARVSTKWKGLENPELDPSQVEDISRHPSQTRAPEEFVHMRLDSKDLVNMLKISSVAKRVIACFCEGHALVLYVYITDPEDEHTAVLTYYISTYVD

Experiments:
[1] = target: B2; experiment: pull-down
GST-SpRad9 = target: T1, GST-SpRad9; experiment: pull-down

binding result [1] | binding result (GST-SpRad9) | Binder
binds |  | B1
 | binds | B2
binds |  | B3
